Assay [1] deals with T1, FLT3xCD3 TCE SEQ ID NO 93.
T1 construct: Single-chain scFv-scFv-scFc T cell engager; also called FLT3×CD3ε TCE; FLT3_7 A8xCD3-scFc Bispecific HLE molecule
The experiment in a line: Table 5, ratio to a reference peptide that the table does not name. Details: reference not given here.

The target in assay [2] is T1, FLT3xCD3 TCE SEQ ID NO 93. Put plainly: KinExA association kinetics, Table 5. How it is done: (§1) 1. Preparation of NHS-activated sepharose fast-flow beads: [0565] 2. Fast flow sepharose suspension in 100% IPA, washed twice with milliQ H20, mild centrifugation to pool beads in between wash steps. [0566] 3. […] 4. Added 80 mM PDEA to activate the resin for thiol exchange, 10 mins, r.t. [0568] 5. […] 6. Added 30 μg/mL of binding peptide, […] […] (SEQ ID NO: 300), reaction for 1 hr to functionalize resin. [0570] 7. Quench with 10 mM L-Cys for 1 hour. [0571] 8.
(In general: In KinExA the mixture passes briefly over coated beads that capture the unbound partner.)

The target in assay [3] is T1, FLT3xCD3 TCE SEQ ID NO 93. Put plainly: kinetics, Table 5. As for the experimental part: as §1
For assay [4], the target named is T1, FLT3xCD3 TCE SEQ ID NO 93. Put plainly: KinExA equilibrium in solution, Table 5. As for the experimental part:
as §1

Assay [5] has as its target T1, FLT3xCD3 TCE SEQ ID NO 93. Put plainly: SPR solution competition, peptide titrated into fixed TCE, free TCE read on peptide capture surface. From the text: (§2) For the binding assessment, Individual binding isotherms were constructed by titrating the respective peptide of interest into a fixed concentration of TCE-containing solution in PBST. At least 4 hrs equilibration time were allotted (r.t.) prior to analysis by SPR. For the analysis, a calibration curve was first constructed of the TCE analyte being assessed. […] The ‘free’ TCE concentration measured was plotted as a function of log peptide concentration and fit using non-linear regression analysis to a 4 parameter logistic function to derive an IC50.

Assay [6] concerns the target T1, FLT3xCD3 TCE SEQ ID NO 93. Put plainly: KinExA equilibrium in solution, Table 5; single reference peptide QDGNEEMG (original CD3ε epitope). As for the experimental part: as §1
The target of assay [7] is T2, Steap 1xCD3 TCE SEQ ID NO 373 + 374 + 375.
T2 construct: also called STEAP1×CD3e heterodimeric TCE; Ab-A1 Xmab2+1
The experiment in a line: SPR solution competition, peptide titrated into fixed TCE, free TCE read on peptide capture surface.
From the text: as §2

Assay [8] deals with CDH3-CD3-MSLN-CD3 TCE (SEQ ID NO 255). The experiment in a line: SPR, immobilised peptide, bivalent analyte model, fast component. Background: In SPR one partner is held on a chip, and binding of the other changes the refractive index at the surface.
Assay [9] addresses T2, Steap 1xCD3 TCE SEQ ID NO 373 + 374 + …. The experiment in a line: SPR, peptide immobilised on CM5 (PDEA), TCE as analyte, kinetic 1:1 fit.
In assay [10] the target is T1, FLT3xCD3 TCE SEQ ID NO 93. The assay is described as above.
In assay [11] the target is T3, DLL3xCD3 TCE SEQ ID NO 104.
T3 construct: Single-chain T cell engager; also called DLL3×CD3ε TCE
The assay is described as above.

Assay [12] concerns the target CDH3-CD3-MSLN-CD3 TCE (SEQ ID NO 255). Put plainly: SPR, peptide immobilised on CM5 (PDEA), TCE as analyte, steady state affinity.
The target of assay [13] is T3, DLL3xCD3 TCE SEQ ID NO 104. The experiment in a line: KinExA equilibrium in solution, KD relative to peptide concentration, TCE 250 pM.
Assay [14] has as its target T1, FLT3xCD3 TCE SEQ ID NO 93. The experiment in a line: KinExA equilibrium in solution, KD relative to peptide concentration, TCE 125 pM.
Assay [15] addresses CDH3-CD3-MSLN-CD3 TCE (SEQ ID NO 255). The experiment in a line: KinExA equilibrium in solution, KD relative to peptide concentration, TCE 250 pM.

Where no end group is shown, it is not given here. Side-chain parts run from the residue outwards. [ ]: non-standard residue; d: D form. thiosuccinimide (maleimide) = thiosuccinimide linkage from the Cys thiol to the maleimide of 4-arm 5 kDa PEG; thiosuccinimide = thiosuccinimide linkage joining the Cys side chain to 4-arm 5 kDa PEG; pGlu = O=C1CC[C@@H](C(=O)O)N1; disulfide = not defined here; MAL = maleimide

As usually defined, the kon is the second-order rate constant of association. A word on the koff: it is the rate constant with which the complex falls apart. The term Kd denotes the equilibrium constant for the complex coming apart. In general, IC50 refers to the concentration that inhibits the measured activity by half.

Chain of CDH3-CD3-MSLN-CD3 TCE (SEQ ID NO 255) (chain, as listed by the source): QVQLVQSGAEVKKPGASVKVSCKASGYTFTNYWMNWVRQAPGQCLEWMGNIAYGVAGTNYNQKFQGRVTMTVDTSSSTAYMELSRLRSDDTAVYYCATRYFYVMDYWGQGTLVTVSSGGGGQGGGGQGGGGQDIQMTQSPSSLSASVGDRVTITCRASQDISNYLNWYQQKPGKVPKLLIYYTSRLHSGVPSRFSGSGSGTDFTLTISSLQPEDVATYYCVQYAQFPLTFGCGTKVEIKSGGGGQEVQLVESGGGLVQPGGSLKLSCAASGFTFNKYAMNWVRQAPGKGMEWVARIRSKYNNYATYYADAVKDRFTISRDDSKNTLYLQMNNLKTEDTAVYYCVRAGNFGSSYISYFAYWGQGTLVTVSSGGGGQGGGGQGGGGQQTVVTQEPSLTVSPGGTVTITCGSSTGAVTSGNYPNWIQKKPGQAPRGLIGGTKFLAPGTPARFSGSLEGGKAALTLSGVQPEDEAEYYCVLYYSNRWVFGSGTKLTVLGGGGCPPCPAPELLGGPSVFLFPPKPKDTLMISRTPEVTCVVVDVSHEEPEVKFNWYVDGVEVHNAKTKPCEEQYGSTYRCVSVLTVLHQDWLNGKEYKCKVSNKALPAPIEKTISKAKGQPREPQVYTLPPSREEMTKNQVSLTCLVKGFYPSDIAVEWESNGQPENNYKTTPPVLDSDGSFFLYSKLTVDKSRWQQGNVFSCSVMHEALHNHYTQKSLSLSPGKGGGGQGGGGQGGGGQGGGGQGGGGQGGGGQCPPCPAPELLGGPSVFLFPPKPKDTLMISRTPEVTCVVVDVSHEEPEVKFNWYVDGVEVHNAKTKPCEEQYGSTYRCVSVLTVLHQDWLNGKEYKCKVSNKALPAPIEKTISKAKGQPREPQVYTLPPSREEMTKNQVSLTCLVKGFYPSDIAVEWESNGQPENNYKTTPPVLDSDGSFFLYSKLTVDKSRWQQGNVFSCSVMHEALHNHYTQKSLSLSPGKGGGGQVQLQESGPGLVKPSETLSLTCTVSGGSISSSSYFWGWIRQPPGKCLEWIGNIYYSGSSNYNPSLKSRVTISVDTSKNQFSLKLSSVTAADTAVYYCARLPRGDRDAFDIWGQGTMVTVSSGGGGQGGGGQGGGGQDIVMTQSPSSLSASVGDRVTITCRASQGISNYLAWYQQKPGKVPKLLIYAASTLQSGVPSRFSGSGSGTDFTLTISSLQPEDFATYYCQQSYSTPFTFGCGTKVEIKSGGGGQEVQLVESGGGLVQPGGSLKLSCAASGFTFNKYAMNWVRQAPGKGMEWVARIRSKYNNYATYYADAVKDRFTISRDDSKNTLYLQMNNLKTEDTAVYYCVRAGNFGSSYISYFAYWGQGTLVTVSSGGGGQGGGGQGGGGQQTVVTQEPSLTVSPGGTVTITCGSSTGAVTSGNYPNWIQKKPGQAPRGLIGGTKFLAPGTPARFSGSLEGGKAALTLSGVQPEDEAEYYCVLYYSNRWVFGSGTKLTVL

B1: QDGNEEMG-QDGNEEMG (peptide)
peptide: QDGNEEMGQDGNEEMG
Regarding B1, in assay [1], the fold-Kd worked out at 3.25 fold, the fold-koff worked out at 0.24 fold and the fold-kon is 0.77 fold. Further, the on-rate constant (kon) in assay [2] came out at 533000 M⁻¹ s⁻¹. Also, in assay [3], the koff was found to be 0.00586 s⁻¹. In addition, the Kd in assay [4] was found to be 11 nM.

B2: pGlu-DGNEELKPGC (peptide)
peptide: [pGlu]DGNEELKPGC
notes: Position 1 is written E for pGlu
B2: in assay [5], the 50% inhibitory concentration (IC50) amounted to 5.2 nM.

B3: QDGNEEMG (peptide)
peptide: QDGNEEMG
Consider B3, for which, in assay [5], the 50% inhibitory concentration (IC50) came to 133 nM. Also, the on-rate constant (kon) in [2] was found to be 692000 M⁻¹ s⁻¹. This molecule returned a koff in [3] of 0.0248 s⁻¹. In [6], this molecule gave a Kd of 35.8 nM.

B4: QDGNEEMG-K-QDGNEEMG (peptide)
peptide: QDGNEEMGKQDGNEEMG
B4: in assay [1], the fold-Kd is 2.77 fold, the fold-koff is 0.28 fold and the fold-kon was 0.56 fold. Further, the kon in [2] turned out to be 448000 M⁻¹ s⁻¹. Moreover, the koff in assay [3] amounted to 0.00497 s⁻¹. For the same molecule, binding in [4] was put at a Kd of 8.05 nM.

B5: pGlu-DGNEELKGC (peptide)
peptide: [pGlu]DGNEELKGC
notes: also called ID 14974
For B5, the IC50 in [7] is 13.4 nM; in assay [5], 2.7 nM. The fold-Kd in [1] amounted to 252 fold. The koff in assay [8] was determined as 0.0212 s⁻¹; in [9] it was 0.00514 s⁻¹; in [10], 0.0024 s⁻¹; in [11] it was 0.00279 s⁻¹. The on-rate (kon) is 2.42e+06 M⁻¹ s⁻¹ in [8], 2e+06 M⁻¹ s⁻¹ in [9], 1.88e+06 M⁻¹ s⁻¹ in assay [10] and 2.14e+06 M⁻¹ s⁻¹ in assay [11]. Besides, the Kd in assay [4] turned out to be 0.142 nM; in assay [9] it was 2.57 nM; in assay [10], 1.28 nM; in assay [11] it was 1.3 nM; in assay [12] it was 13.3 nM.

B6: pGlu-DGVEELKGC (peptide)
peptide: [pGlu]DGVEELKGC
notes: as for B2
With B6, the concentration for half-maximal inhibition (IC50) worked out at 26.4 nM in assay [7] and 9 nM in [5].

B7: 79677-1 (peptide)
peptide: [pGlu]DGEEELKGC([thiosuccinimide (maleimide)-4‑arm PEG 5 kDa])-NH2
modifications: also: 4-arm PEG conjugate, number of peptide copies not given here
notes: TCE masking molecule
Take B7: the Kd in assay [13] was 4.69 nM.

B8: pGlu-DGTEELKGC (peptide)
peptide: [pGlu]DGTEELKGC
notes: as for B2
B8: the IC50 was 59.9 nM in [7] and 39.7 nM in [5]. Also, the values for the dissociation constant Kd in assay [9], in assay [10] and in assay [11] were 35.2 nM, 8.88 nM and 14.8 nM, respectively. Moreover, the dissociation rate constant (koff) was 0.0734 s⁻¹ in [9], 0.0285 s⁻¹ in [10] and 0.0713 s⁻¹ in assay [11]. For the same molecule, the kon in assay [9] worked out at 2.09e+06 M⁻¹ s⁻¹; in assay [10] it was 3.21e+06 M⁻¹ s⁻¹; in [11], 4.81e+06 M⁻¹ s⁻¹.

B9: 79676-1 (peptide)
peptide: [pGlu]DGEEELKGC([thiosuccinimide-4‑arm PEG 20 kDa])-NH2
modifications: also: 4-arm PEG conjugate, number of peptide copies not given here
notes: TCE masking molecule
In assay [13], B9 returned a Kd of 12.8 nM.

B10: pGlu-DGEEELKGC (peptide)
peptide: [pGlu]DGEEELKGC
Consider B10, for which the figures for the half-maximal inhibitory concentration (IC50) in assay [7] and in [5] were 28.6 nM and 14.7 nM, respectively. Further, the koff in assay [8] is 0.236 s⁻¹; in assay [9], 0.0834 s⁻¹; in assay [10], 0.0295 s⁻¹; in assay [11], 0.0542 s⁻¹. Besides, the on-rate constant (kon) stood at 1.29e+06 M⁻¹ s⁻¹ in assay [8], 3.04e+06 M⁻¹ s⁻¹ in assay [9], 4.04e+06 M⁻¹ s⁻¹ in assay [10] and 2.64e+06 M⁻¹ s⁻¹ in assay [11]. Besides, the dissociation constant (Kd) in assay [9] turned out to be 27.4 nM; in assay [10] it was 7.3 nM; in [11] it was 20.5 nM; in assay [12], 72.5 nM.

B11: pGlu-DGIEELKGC (peptide)
peptide: [pGlu]DGIEELKGC
notes: as for B2
Consider B11, for which the half-inhibitory concentration (IC50) in assay [7] came out at 11.6 nM; in [5], 3.6 nM.

B12: pGlu-DGSEELKGC (peptide)
peptide: [pGlu]DGSEELKGC
notes: as for B2
Regarding B12, the IC50 in assay [7] was 16.7 nM; in assay [5], 8.2 nM.

B13: pGlu-DGNEEMGKGMEENGDQC (peptide)
peptide: [pGlu]DGNEEMGKGMEENGDQC
notes: Position 1 is written E for pE
Turning to B13, the IC50 in assay [5] was 2.4 nM. For the same molecule, the fold-Kd in assay [1] amounted to 203 fold. Moreover, binding in assay [4] was put at a Kd of 0.176 nM.

B14: (QDGNEEMGKGMEENGDQC)4 -PEG(20 kDa) (peptide)
peptide: QDGNEEMGKGMEENGDQC(4‑arm PEG 20 kDa)
modifications: also: four peptides on one 4-arm PEG
notes: Peptide-PEG conjugate with four peptides on one PEG; also called CD3ε PepPOL, v1 (20 kDa); 4-arm 20 kDa PepPOL conjugate
Turning to B14, the fold-kon in [1] came out at 1.14 fold. The molecule further registered an on-rate (kon) in assay [2] of 199000 M⁻¹ s⁻¹. The same molecule gave a koff in assay [3] of 0.0047 s⁻¹. In assay [4], this molecule had a Kd of 22 nM.

B15: (pGlu-DGNEELKGC)4 -MAL PEG(10 kDa) (peptide)
peptide: [pGlu]DGNEELKGC([MAL-PEG 10 kDa])
modifications: also: four peptides per PEG
B15: the Kd in [4] was determined as 0.142 nM.

B16: 72103-1 (peptide)
peptide: [pGlu]DGNEELKGC([thiosuccinimide-4‑arm PEG 5 kDa])-OH
As to B16, in assay [14], the Kd worked out at 0.0777 nM.

B17: (pGlu-DGNEEMGKGMEENGDQC)4 -PEG(20 kDa) (peptide)
peptide: [pGlu]DGNEEMGKGMEENGDQC([disulfide-4‑arm PEG 20 kDa])
modifications: reading uncertain; also: four peptides on one 4-arm PEG, printed as pGlu-DGNEEMGKGMEENGDQC
notes: also called CD3ε PepPOL, v2; Pep-PEG v2
Consider B17, for which, in assay [1], the fold-Kd amounted to 203 fold, the fold-koff came to 0.01 fold and the fold-kon stood at 16.2 fold. This molecule also displayed a kon in assay [2] of 1.12e+07 M⁻¹ s⁻¹. The molecule also gave an off-rate constant (koff) in assay [3] of 0.00195 s⁻¹. This molecule also had a dissociation constant (Kd) in assay [4] of 0.176 nM.

B18: 79675-1 (peptide)
peptide: [pGlu]DGNEELKGC([thiosuccinimide-4‑arm PEG 5 kDa])-NH2
modifications: also: 4-arm PEG conjugate, number of peptide copies not given here
For the molecule B18, the affinity in assay [13], expressed as Kd, was 0.0623 nM.

B19: pGlu-DGNEELPKPGC (peptide)
peptide: [pGlu]DGNEELPKPGC
notes: as for B2
Take B19: in assay [5], the IC50 was found to be 2.7 nM.

B20: 79674-1 (peptide)
peptide: [pGlu]DGNEELKGC([thiosuccinimide-4‑arm PEG 20 kDa])-NH2
modifications: also: 4-arm PEG conjugate, number of peptide copies not given here
Consider B20, for which the dissociation constant Kd was found to be 0.0638 nM in assay [15] and 0.0372 nM in [13].

B21: (pGlu-DGNEELKGC)4 -MAL PEG(5 kDa) (peptide)
peptide: [pGlu]DGNEELKGC([MAL-PEG 5 kDa])
modifications: also: four peptides per PEG
For B21, the Kd in [4] is 0.142 nM.

B22: QDGNEEMG-GMEENGDQ (peptide)
peptide: QDGNEEMGGMEENGDQ
notes: how the reversed half is joined is not explained
With B22, in assay [1], the fold-Kd is 3.62 fold, the fold-koff was found to be 0.19 fold and the fold-kon turned out to be 0.69 fold. Besides, in assay [2], the association rate constant (kon) is 476000 M⁻¹ s⁻¹. The molecule further returned an off-rate (koff) in assay [3] of 0.00471 s⁻¹. In addition, in assay [4], the Kd worked out at 9.88 nM.

B23: QDGNEEMG-K (peptide)
peptide: QDGNEEMGK
B23 displayed an on-rate constant (kon) in [2] of 806000 M⁻¹ s⁻¹. The molecule further gave an off-rate (koff) in assay [3] of 0.0179 s⁻¹. In assay [4], this molecule yielded a Kd of 22.3 nM.

These data come from US20260258083A1 (Amgen, published 2026).
